Assay results published in US20110038881A1 (published 2011).

Columns and labels:
HLA-DRB1*0101 [1] = biological target: HLA-DRB1*0101 (human); experiment: competition
HLA-DRB4*0101 = HLA-DRB4*0101 (human); experiment: competition binding
HLA-DRB1*1501 = HLA-DRB1*1501 (human); experiment: competition binding
HLA-DRB1*0301 = HLA-DRB1*0301 (human); experiment: competition binding
HLA-DRB1*1101 = HLA-DRB1*1101 (human); experiment: competition binding
HLA-DRB3*0101 = HLA-DRB3*0101 (human); experiment: competition binding
HLA-DRB1*1301 = HLA-DRB1*1301 (human); experiment: competition binding
HLA-DRB1*0101 [2] = biological target: HLA-DRB1*0101 (human); experiment: competition binding
HLA-DRB1*0401 = HLA-DRB1*0401 (human); experiment: competition binding
HLA-DRB1*0701 = HLA-DRB1*0701 (human); experiment: competition binding
HLA-DRB5*0101 = HLA-DRB5*0101 (human); experiment: competition binding

IC50 (HLA-DRB1*0101 [1]) | IC50 (HLA-DRB4*0101) | IC50 (HLA-DRB1*1501) | IC50 (HLA-DRB1*0301) | IC50 (HLA-DRB1*1101) | IC50 (HLA-DRB3*0101) | IC50 (HLA-DRB1*1301) | IC50 (HLA-DRB1*0101 [2]) | IC50 (HLA-DRB1*0401) | IC50 (HLA-DRB1*0701) | IC50 (HLA-DRB5*0101) | Binder
1 nM | – | – | – | – | – | – | – | – | – | – | WRFLRGYHQYAYDGK [peptide p21 (residues 107-121 of HLA-A2)]
– | 2180 nM | 374 nM | 164 nM | 4000 nM | 456 nM | > 100000 nM | 122 nM | 354 nM | 786 nM | 1550 nM | TQFVRFDSDAASQRM [peptide p7 (residues 31-45 of HLA-A2)]
